Measurements reported in the supplement of paper PMC9112550, “Optimization of the antimicrobial peptide Bac7 by deep mutational scanning” (BMC Biology, 2022).

Test system: Escherichia coli TOP10
Assay: shrunken log2 fold change of peptide-encoding DNA abundance (4.5 h post-induction vs induction); higher = less antimicrobial activity (less host growth inhibition)
Conditions: time post-induction: 4.5 h; library: site-saturation at positions 5, 18, 19, 20
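Also: peptides expressed intracellularly from a pBAD plasmid library in pooled LB shake-flask culture, induced with 0.3% L-arabinose, DNA abundance read by NGS, three biological replicates, DESeq2 with apeglm shrinkage.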

| Sequence | shrunken log2 fold change |
| --- | --- |
| RRIRFRPPRLPRPRPRPPHYPRP | -0.124 |
| RRIRERPPRLPRPRPRPFVWPRP | -0.0465 |
| RRIRVRPPRLPRPRPRPMYYPRP | -0.706 |
| RRIRSRPPRLPRPRPRPHQLPRP | -0.201 |
| RRIRNRPPRLPRPRPRPLCQPRP | -0.307 |
| RRIRQRPPRLPRPRPRPHFKPRP | -0.332 |
| RRIRNRPPRLPRPRPRPPICPRP | 0.0224 |
| RRIRFRPPRLPRPRPRPHWAPRP | -0.0371 |
| RRIRHRPPRLPRPRPRPMFMPRP | -0.256 |
| RRIRARPPRLPRPRPRPIGPPRP | 0.537 |
| RRIRYRPPRLPRPRPRPVYRPRP | -0.158 |
| RRIRSRPPRLPRPRPRPYVEPRP | -0.442 |
| RRIRDRPPRLPRPRPRPQNSPRP | -0.24 |
| RRIRERPPRLPRPRPRPYKGPRP | -0.0341 |
| RRIRVRPPRLPRPRPRPNPKPRP | -0.0645 |
| RRIRMRPPRLPRPRPRPQIRPRP | -0.0442 |
| RRIRKRPPRLPRPRPRPGPRPRP | 1.08 |
| RRIRYRPPRLPRPRPRPPDCPRP | -0.00396 |
| RRIRERPPRLPRPRPRPTTRPRP | 0.0679 |
| RRIRRRPPRLPRPRPRPFHGPRP | -0.17 |
| RRIRARPPRLPRPRPRPMIEPRP | 0.314 |
| RRIRCRPPRLPRPRPRPRTPPRP | 0.571 |
| RRIRVRPPRLPRPRPRPVHFPRP | 0.13 |

| Sequence | shrunken log2 fold change |
| --- | --- |
| RRIRCRPPRLPRPRPRPKFSPRP | -0.0966 |
| RRIRRRPPRLPRPRPRPHVDPRP | 0.027 |
| RRIRTRPPRLPRPRPRPMYNPRP | -0.325 |
| RRIRTRPPRLPRPRPRPATTPRP | -0.181 |
| RRIRERPPRLPRPRPRPTYCPRP | 0.0353 |
| RRIRSRPPRLPRPRPRPKCTPRP | -0.0418 |
| RRIRERPPRLPRPRPRPERIPRP | -0.0271 |
| RRIRTRPPRLPRPRPRPIFHPRP | -0.204 |
| RRIRKRPPRLPRPRPRPQDHPRP | 0.103 |
| RRIRCRPPRLPRPRPRPMEEPRP | 0.0671 |
| RRIRGRPPRLPRPRPRPPGPPRP | 0.821 |
| RRIRPRPPRLPRPRPRPFLFPRP | -0.204 |
| RRIRQRPPRLPRPRPRPQFEPRP | -0.0143 |
| RRIRVRPPRLPRPRPRPMRVPRP | 0.0609 |
| RRIRLRPPRLPRPRPRPFRFPRP | -0.212 |
| RRIRPRPPRLPRPRPRPNVPPRP | -0.11 |
| RRIRFRPPRLPRPRPRPNNYPRP | -0.539 |
| RRIRCRPPRLPRPRPRPTYRPRP | 0.0231 |
| RRIRTRPPRLPRPRPRPIGDPRP | -0.293 |
| RRIRDRPPRLPRPRPRPEWCPRP | 0.272 |
| RRIRRRPPRLPRPRPRPKAYPRP | 0.224 |
| RRIRKRPPRLPRPRPRPLAKPRP | 0.614 |
| RRIRGRPPRLPRPRPRPINHPRP | -0.0462 |

| Sequence | shrunken log2 fold change |
| --- | --- |
| RRIRCRPPRLPRPRPRPTHHPRP | 0.126 |
| RRIRRRPPRLPRPRPRPQVKPRP | 0.132 |
| RRIRGRPPRLPRPRPRPIDVPRP | 0.0296 |
| RRIRDRPPRLPRPRPRPKAFPRP | -0.00149 |
| RRIRWRPPRLPRPRPRPDHGPRP | -0.104 |
| RRIRERPPRLPRPRPRPPTFPRP | -0.767 |
| RRIRWRPPRLPRPRPRPCHNPRP | -1.64 |
| RRIRCRPPRLPRPRPRPRMSPRP | 0.041 |
| RRIRSRPPRLPRPRPRPTQNPRP | 0.375 |
| RRIRPRPPRLPRPRPRPPSWPRP | 0.54 |
| RRIRLRPPRLPRPRPRPRVGPRP | 0.295 |
| RRIRFRPPRLPRPRPRPSENPRP | -0.458 |
| RRIRARPPRLPRPRPRPYYFPRP | -0.701 |
| RRIRFRPPRLPRPRPRPTDTPRP | -0.263 |
| RRIRLRPPRLPRPRPRPMLLPRP | -0.56 |
| RRIRPRPPRLPRPRPRPHVMPRP | -0.0285 |
| RRIRHRPPRLPRPRPRPYDNPRP | -0.0737 |
| RRIRRRPPRLPRPRPRPGWKPRP | 0.136 |
| RRIRWRPPRLPRPRPRPEWAPRP | 0.497 |
| RRIRIRPPRLPRPRPRPDSYPRP | 0.072 |
| RRIRQRPPRLPRPRPRPSELPRP | -0.159 |
| RRIRGRPPRLPRPRPRPVEDPRP | 0.0393 |
| RRIRPRPPRLPRPRPRPFFYPRP | -0.214 |

| Sequence | shrunken log2 fold change |
| --- | --- |
| RRIRQRPPRLPRPRPRPTDWPRP | 0.0907 |
| RRIRARPPRLPRPRPRPHVTPRP | 0.0281 |
| RRIRLRPPRLPRPRPRPITNPRP | -0.391 |
| RRIRNRPPRLPRPRPRPAKFPRP | -0.179 |
| RRIRRRPPRLPRPRPRPDMGPRP | 0.00408 |
| RRIRRRPPRLPRPRPRPETPPRP | 1.12 |
| RRIRWRPPRLPRPRPRPSSKPRP | -0.369 |
| RRIRFRPPRLPRPRPRPHPTPRP | -0.133 |
| RRIRSRPPRLPRPRPRPLLEPRP | 0.243 |
| RRIRCRPPRLPRPRPRPMVKPRP | -0.228 |
| RRIRPRPPRLPRPRPRPQSVPRP | -0.0354 |
| RRIRCRPPRLPRPRPRPSHWPRP | -0.204 |
| RRIRWRPPRLPRPRPRPGLRPRP | 0.53 |
| RRIRNRPPRLPRPRPRPKKPPRP | -0.0506 |
| RRIRHRPPRLPRPRPRPSGEPRP | -0.03 |
| RRIRIRPPRLPRPRPRPDEEPRP | -0.00176 |
| RRIRCRPPRLPRPRPRPRTSPRP | 0.00938 |
| RRIRPRPPRLPRPRPRPSDGPRP | -0.26 |
| RRIRLRPPRLPRPRPRPDRAPRP | 0.0122 |
| RRIRFRPPRLPRPRPRPFSYPRP | -0.777 |
| RRIRNRPPRLPRPRPRPISTPRP | -0.507 |
| RRIRHRPPRLPRPRPRPKQGPRP | -0.0386 |
